# Experimental data reported in US20220218001A1, “REDOX ENZYMES IN ANIMAL FEED COMPOSITIONS” (Novozymes A/S, priority 2019, published 2022).
# B1: CAT: catalase feed enzyme: SEQ ID NO 7 in Examples 1-2; in Example 4 probably treatment 6 (Product C, SEQ ID NO 250) (protein)
# chain: MRHFWLLPAVAGIAGAQCPYLSGEMSFTQEQDNAGDTIEVTEQTIDNTLYVNDTGSYMTTDFGTPISDQYSLKAGRRGPTLLEDFIFRQKLQRFDHERVPERVVHARGAGAYGTFKSYADWSNVTAADFLSANEKETPMFCRFSTVVGFRGSVDTARDVHGHACRFYTDEGNYDIVGINFAPFFIQDAIQFPDLVHAIKPMPNNEIPQAATAHTSAWDFFSQQSTALHSALWLMSGNGIPRSFRHMNGYGVHSFRFVAANGTSKVVRYRWKSQQGVASLVWEEAQAAAGKNSDYHRQDLYNAIANGHYPKYELQAQIMDEADMLRFGFDLLDPTKLVPEEVVPYTPLGMMELNANPTNYFAEVEQAGFQPGHVVPGIDFTDDPLLQGRLFSYLDTQLTRHGGPNFEQIPVNRPRKPVHNNNRDGFGQQQIPTNNWAYTPNTMSNGYPMQANQTHGHGFFTSPYRYASGHLIREPSPTFHDHWSQPAMFWNSLIPAEQQMVVNAIVFENSKVNSPHVRKNVVNQLNMVNNNLAVRVARGLGLDEPSPNPTYYTSNKTSNVGTFGKPLLSIEGLQVGFLASNSHPESIKQGQAMAAQFSAAGVDLNIVTEAYADGVNTTYALSDAIDFDALIIADGVQSLFASPSLANQMNSTATSTLYPPARPYQILVDSFRYGKPVAAVGSGSAALKNAGIDTSRSGVYTGSSETTENIAKEVLKGLYTFRFVDRFALDE
# modifications: Aspergillus niger; mat_peptide (1)..(740)
# Experiments:
# [1] = Gastric stability assay of SODs; assay type: in vitro ADME; settings: 37° C., reference activity at pH7.0 without stress
# Method: Gastric stability was assayed with artificial gastric juice as stress condition. 20 μl SOD with appropriate dilution was added into 180 μl stress buffer (100 mM NaCl, 0.0013M HCl at pH3.0). The stress buffer with pepsin was prepared by adding 1.11 mg/ml pepsin (from porcine gastric mucosa, P7000, Sigma, 474 U/mg). The mixture was incubated at 37° C. in thermomixer for 0, 15, 30, 45, 60, 90, and 120 minutes separately. 10 μl sample extracted from the mixture was added into 90 μl activity buffer (K2HPO4/KH2PO4 mixed with final concentration of 100 mM PBS at pH7.0) as stop mixture. Then 20 μl stop mixture was added into 200 μl WST solution (or CytoC solution at pH7.8), and finally 20 μl coupled enzyme solution from kit was added to measure absorbance. The absorbance was measured at 450 nm for Sigma SOD kit (or 550 nm at pH 7.8) for 20 minutes at 37° C. (interval 40 sec, shake before first read). The activity at pH7.0 without stress condition was set as reference, and the residual activity at stress condition (pH3.0, pH3.0+pepsin) compared with reference was calculated as relative stability.
# [2] = commercial SODs from Sigma set as specific activity reference; cited from earlier work
# Glutathione peroxidase = test: Plasma GPx activity (GPx determination KIT); assay type: in vivo; settings: piglets, day 42
# Method: The concentration of total proteins was determined in liver lysate and plasma, using the Pierce™ BCA Protein Assay Kit (Thermo Fisher Scientific, Illkirch-Graffenstaden, France). The samples were processed following the supplier's recommendations. Plasma samples were diluted 100 times. 25 μL of standards or samples were added to 200 μL of working reagent and incubated 30 minutes at 37° C. The colorimetric intensity was measured at 562 nm. Results are expressed in μg of total protein per mL of sample.
# The activity of the Glutathione peroxidase was determined using the GPx determination KIT (abcamab102530). Briefly, 40 μL of the colorimetric reaction mix was added to 100 μL of standards and 10 μL of cumene hydroperoxide was added to the standards and to the 50 μL of samples (Plasma samples were adjusted to bring 600 μg of total protein in the reaction). The absorbance at 340 nm was measured (A1), and after 5 min at 25° C., a second measurement was done (A2).
# The GPx activity was calculated as follow:
# B=NADPH amount that was decreased between T1 and T2 (in nmol).
# T1=Time of the first reading (A1) (minutes).
# T2=Time of second reading (A2) (minutes).
# V=Pretreated sample volume added into the reaction well (mL).
# D=Sample dilution factor.
# (§1) ANOVA was performed for plasmatic parameters and student test was calculated to evaluate the significance of the differences observed in gene expression.
# [3] = system: genes related to oxidative stress; test: Oxidative stress PCR array in duodenum and ileum of weaned piglets; assay type: in vivo; settings: duodenum, day 42, vs control group, p=0.019
# Method: The objective of this study was to evaluate anti-oxidant enzymes supplementation (SOD and CAT) alone and in combination in early weaned piglets, and if these enzymes can potentially alleviate the oxidative stress impact on weaned piglets and consequently improve the growth performance. In the in vivo trial (example 3), plasma samples were collected at day 0 (baseline, weaning moment), day 14 and day 42 of the study for additional analysis. […]
# Total RNA was extracted from tissues (stored at −20° C. in RNA later) by lysing tissue with FastPrep® 24 (MP Biomedicals, Illkirch, France), using the phenol-chloroform method (TRIzol reagent; Invitrogen, Invitrogen, Cergy Pontoise, France) followed by purification using RNeasy columns by automated method with the Qiacube HT (Qiagen, Courtaboeuf, France). The concentration of RNA was measured by NanoDrop ND-1000 Spectrophotometer (Thermo Fisher Scientific, Illkirch, France) and the purity was estimated by A260/A280 ratio. RNA integrity was assessed by using the Agilent 2100 Bioanalyzer (Agilent Technologies, Basel, Switzerland). The threshold of the RNA Integrity Number (RIN) was set at 7.5 to validate sufficient quality of the RNAs. […]
# as §1
# [4] = Nutritional model in piglets: growth performance (FCR); assay type: in vivo; settings: d 0-42, piglets, vs NC (22% CP)
# Method: Experimental Unit: Slatted Floor Pens, 4 piglets per pen (2 barrows & 2 gilts per pen)
# Feed Type: Starter (Day 0-21) and Grower (Day 21-42). MASH feed is employed, using a corn-soybean type commercial ration formulation with an increase of 5-6% crude protein compared to normal commercial rations. Test material is added to the feed beginning on Day 0 and continuing through Day 42.
# Replication/piglets per treatment: Treatments 1-8 fed to 12 replicates each of 4 piglets (2 barrows+2 gilts) per replicate.
# Piglet Source: Piglets (post-weaned, at 21 days of age, called Day 0) are collected in early am (day of placement or Day 0), weighed (2 barrows & 2 gilts per pen), and assigned to each experimental pen. Each piglet is weighed individually and assigned to a pen, with very high and very low body weights excluded from the study. After all piglets are assigned to a pen, the body weights are checked to ensure no treatment is more than 1 standard deviation from another treatment.
# [5] = system: reactive oxygen metabolites (ROM) and Plasma antioxidant capability (PAT); test: Oxidative stress index FRAS5 (d-ROM, PAT) in plasma; assay type: in vivo, piglets; settings: piglet plasma
# Method: An oxidative stress index was calculated as the ratio of reactive oxygen metabolites (ROM) and Plasma antioxidant capability (PAT) determined in plasma and liver lysate samples. ROM and
# PAT were analyzed using commercially methods (d-ROM fast test and PAT test) on FRAS5 instrument (Innovatics Laboratory, Philadelphia, USA). For d-ROM test, 10 μL of sample was mixed with an acidic buffer. Then, a chromogen was added, and measured photometrically at 505 nm. The results are expressed in UCarr (1 UCarr=0.08 mg of H2O2/dl). For PAT test, 10 μl of sample was added in a colored solution (mix of source ferric ions and chromogen). The intensity of chromatic change was measured at 505 nm. The results are expressed in UCor (1 UCor=1.4 μM of Vitamin C equivalent). The oxidative stress index was calculated as the ratio of d-ROMs test value to PAT test value.
# as §1
molecule,measurement,setting,value
r E. coli: commercial Sigma SOD; probably recombinant SOD bovine expressed in Escherichia coli (S9697),"Gastric stability: pH 3, +pepsin 15 min - residual activity value %",[1]; 15 min,43%
same,"Gastric stability: pH 3, +pepsin 30 min - residual activity value %",[1]; 30 min,43%
same,SOD specific activity (reference),[2],6108 U/mg EP
B1,plasma GPx activity,Glutathione peroxidase,significant increase
same,GPX1 gene fold change,[3],1.34
same,FCR,[4],significantly better than NC
same,reactive oxygen metabolites (d-ROM),[5]; both time point (day 14 and 42),increase
same,plasmatic antioxidant capacity (PAT),"[5]; day 14, p<0.0001 between groups",increase
